From publication PMC8199477 come the findings set out here.

The test has as its target urate oxidase from Deinococcus radiodurans (DrUox) (Deinococcus radiodurans R1). The experiment in a line: SEC; Superdex 200 (10/300) GL, 20 mM Tris-HCl pH 8.0, 100 mM NaCl, 0.5 mL/min; size by interpolation against protein markers. A general note: In gel filtration, larger molecules generally elute earlier.

What is called stoichiometry N is a count of units in the complex or per binding partner. In turn, “urate oxidase from Deinococcus radiodurans (DrUox) (enzyme)” showed a stoichiometry N of 4.
